According to patent US6521741:

Biological target: TLHL

B1: tobacco etch virus (TEV) protease (protein)
chain: GESLFKGPRDYNPISSTICHLTNESDGHTTSLYGIGFGPFIITNKHLFRRNNGTLLVQSLHGVFKVKNTTTLQQHLIDGRDMIIIRMPKDFPPFPQKLKFREPQREERICLVTTNFQTKSMSSMVSDTSCTFPSSDGIFWKHWIQTKDGQCGSPLVSTRDGFIVGIHSASNFTNTNNYFTSVPKNFMELLTNQEAQQWVSGWRLNADSVLWGGHKVFMSKPEEPFQPVKEATQLMNELVYSQ
proteolytic cleavage seen on SDS-PAGE: Incubation of TLHL with the TEV protease in PBS at room temperature or at 4 °C produced therefore, a 19kD band on an SDS-PAGE gel
